Assay: soluble on expression in E. coli; label from the status in PepcDB or PDB records

Sequence | soluble on expression in E. coli
MSLNPSGKYQVKILGIEDYQALTACQSACPLGTDTKRYVRAITEGDYEKAFLIARQTNPLVSVCSRVCTAPCEKSCRKGEQGHPVDIRALKRFACDKHGVTSPRAVAGRLEEISRQNGGVGDRTGNHILTMAAVQKAGAAATSRKPAPRVAIIGSGPTGLSAAHDLALLGYGVTIFEAAPYAGGMLRTGIPAFRLPKDVLQQEIDAILNLGVELKLNSPIGEDLTLADLKAQGYESVFITIGLQDPLRILNIEGTDLAGIYSGVEYVRDHEKIRLGKRCLVIGGGGVAIDCAQHAVRQGAEQVMIACLESWETMPASLTEREDAQEEGIVFHPALGPRRFMGHNGHVARAEFLQVSSVFDSEGRFAPTFVPDSTTTLEVDSVILAVGQASTAPSLAGLAGLDLTPNGLIKAAEDMSTNLPGVFAGGDVRWRFTRNATDAIADGQKAARAIHGYLSGHTPQVIRKGFMRPVSPDFENTRCDTIAPVPIPKRDAGERVRTKEEITIGFGEAEAREQAARCRRCNIQTVFERSRCLRCGTCVDTCVNGALRIVRLADIQGDEDVAKLTDALKKSAQTRSKAMTAIIKDESRCASCGMCARRCPGGAITMAEFYCQEEWEEGHHHHHH | soluble
MASNMDREMILADFQACTGIENIDEAITLLEQNNWDLVAAINGVIPQENGILQSEYGGETIPGPAFNPASHPASAPTSSSSSAFRPVMPSRQIVERQPRMLDFRVEYRDRNVDVVLEDTCTVGEIKQILENELQIPVSKMLLKGWKTGDVEDSTVLKSLHLPKNNSLYVLTPDLPPPSSSSHAGALQESLNQNFMLIITHREVQREYNLNFSGSSTIQEVKRNVYDLTSIPVRHQLWEGWPTSATDDSMCLAESGLSYPCHRLTVGRRSSPAQTREQSEEQITDVHMVSDSDGDDFEDATEFGVDDGEVFGMASSALRKSPMMPENAENEGDALLQFTAEFSSRYGDCHPVFFIGSLEAAFQEAFYVKARDRKLLAIYLHHDESVLTNVFCSQMLCAESIVSYLSQNFITWAWDLTKDSNRARFLTMCNRHFGSVVAQTIRTQKTDQFPLFLIIMGKRSSNEVLNVIQGNTTVDELMMRLMAAMEIFTAQQQEDIKDEDEREARENVKREQDEAYRLSLEADRAKREAHEREMAEQFRLEQIRKEQEEEREAIRLSLEQALPPEPKEENAEPVSKLRIRTPSGEFLERRFLASNKLQIVFDFVASKGFPWDEYKLLSTFPRRDVTQLDPNKSLLEVKLFPQETLFLEAKE | soluble
MGSDKIHHHHHHMSNENIVLARNTERAPKHHLAAQTVAFSHYNHLSAQLPIEPTSGQLVEGGIRAQATQCLKNIQAVVESINHVMSDIVRMTIFVKDMRDAAAVEEVYAAFFTHYYPAKTVVAVADLPLGASVQMEALVSNGEGTIPNAPQAGDLIKLTNQTVQAPIDALASQTVAFSHYNNLSAQLPIDPQTGRVVAGCVKTQTKQCLKNIKAILTSIDVPFDDIVKINIYLKDLSKLEAVNQVHAAFFPDSGIARTVNYMPARTVIAVADLPMGAAVQVEAVVSHGDGTPPQAIEDRHGLIIEANNTEHAPKCPFSTQTVAFSHYNHLSAQLPLDPKTNALVAGGIKEQTTQCLENIKAIIESVDHSLADLVKVNIFVKEIEELAAVDDVYQTYFPEGTPARRVIGVTDLPKGAQIQIEAIAGNAEGTPPIG | not soluble
MDALEIFKTLFSLVMRFSSYLPSNEEISDMKTTELYAFLYVALFGPKKMKEIAEFLSTTKSNVTNVVDSLEKRGLVVREMDPVDRRTYRVVLTEKGKEIFGEILSNFESLLKSVLEKFSEEDFKVVSEGFNRMVEALSREGR | not soluble
MKRFFLKTILAAFCVYVPAILNTAYACTRIVYQGPNGTIITARSMDWKGEIPANLWIFPRGIERNGEAGSTSVKWKSTYGSVITSSWDIASSDGMNEKGLVGNLLWLVESTYPKFVKDKDKPGLAVSLWLQYVLDNFATVSEAVAFLEKEPFVVASSHIPGTAIFATVHLSISDATGDNAIFEYIGGKLVIHHDRSYVTMTNSPVFDEQLAINTYWKNIPGTVMLPGTNRAADRFVRASYYIDAIPKTDNTRVALPSVFSVIRNCSVPLGISSEAEPNISSTRWRTVSDQKNLVYYFDNVLNPNVVWVEFSKIDFSEKAKVKKLTLANNENYSGEASMNFKAALPFTFAGLD | not soluble
MAHHHHHHMLWVDKYRPKSLVEVELYPELTEVLKRLAESQDLPHLLLYGPSGTGKKTRAMAVLHHVYGPSVYSLRLEHRSVQVTDSKVVDIATLSSPHHIDINPSDAGNYDRVIVMQMIREIAQTVSLQSSTSNGVKYKVVLLNEVDKMGRAAQHALRRTMEKYMSTCRLVLICNSTSRLIAPLRSRCLAVRVPSHSKENLTKVIRGVCERENRPLPSPEFMATVTQRSEGNLRRALLMVEAAAMTKVDFSGNGADIPQPDWRVFLDEIANDILSEQTPKKLHEIRGKFYNLLGQCVSGELILRLVLEKLMSAVDPALRRPLVALAAQYDHNMKLGTKTIVHLEAFAAGVMQLLKQK | not soluble
MNMIDKIGVHDVPPGESLQPPRIPYTPIFSNKRLSKHMSRFLIYFLPFFIYSGNVLSKTSCLMATGVLKCPTDPEAVKKVHIDLWDEDSLPLESDDLMGRTWSDRNGNFQVTGCASDFGPINTPDPYLYIQHNCPHRDSNATNPIQVYLKVLENASF | not soluble
MSDLVSYHLDDGVATLTLNNGKVNAISPDVIIAFNAALDQAEKDRAIVIVTGQPGILSGGYDLKVMTSSAEAAINLVAQGSTLARRMLSHPFPIIVACPGHAVAKGAFLLLSADYRIGVAGPFSIGLNEVQIGMTMHHAGIELARDRLRKSAFNRSVINAEMFDPEGAMAAGFLDKVVSVEELQGAALAVAAQLKKI | not soluble
MHEYYYIYWYLSEFLYAWLMSTLSRADGSQMAEERIMEEQQKGRSSKKTKKKKKVRPLSREITMSQAYQNMCAGMFKTMVAFDMDGKVRKPKFELDSEQVRYEHRFAPFNSVMTPPPVHYLQFKEMSDLNKYSPPPQSPELYVAASKHFQQAKMILENIPNPDHEVNRILKVAKPNFVVMKLLAGGHKKESKVPPEFDFSAHKYFPVVKLVLEHHHHHH | not soluble
MAHHHHHHMTFSVKGGSYSSSHPSPAMHPYVSPSLLPQSHGQQAPPSFSLGDEQYVGVPKRVGVDPTKYKTTICRNWEQTGTCAFRGCTFAHGVEELRAPLRPDGHTPVLRPQHISPGSTPPLRASQPPPPPSSGHYTLEQLLDMLYKEVLHQRELVTVHVEANTTLEGMLRREQAQHDASKKQLEEKTQQCELFARELFARNQQLRKAADSSPEIKELLDQWETQLASFSEADVKKDDVFHTATATSSTDDGGDSGKEYESARIEELLRALQR | not soluble
MSLREVALKILIVEDDTDAREWLSTIISNHFPEVWSAGDGEEGERLFGLHAPDVIITDIRMPKLGGLEMLDRIKAGGAKPYVIVISAFSEMKYFIKAIELGVHLFLPKPIEPGRLMETLEDFRHIKLAKLKKEEAEQERIRSLLFESKKELIRLIAHHWRQPLNVISITAENIKLNLDERGIEGHEDTHHLADKIVTESLRLSRVISRFSDTFFAKEEVGRHFGLHTVLKDAFEIAEPLAQEARCLLEIEGNDEVIFGLKGMLVQILLEVFKAIMALCDQVNRGELLVRVVCESFEGEVKIWMADVACAGRCWSEVMFEPFAGGFEEKRRDMELFVAQHLLRRYFDGMIKIVDRGEIRGLEITLSRNPKKFNSPLAEGHHHHHH | soluble
MGSDKIHHHHHHMINYHPDQHLLSLHAKGELPLSMSIAISAHAELCPHCQQQLDQMTIALSEQQFESAVKTQSVDTNDNHQLDALLEQLLNSTLDTLEIEQASTIDTIEDNSVSIKGQHYPLPKVFRKQINASWQGIGKVSRLRLDTGEPQARASLLHIAANGEIPEHTHKGAELTLLLAGEFSDCYNTYKPGDFMLLDKEHQHSPKTLEGCLCYTIVDAPLYFTKGFSKLLNPIGDLLY | not soluble
MTQHTRNFSFKVLTINTHKGFTAFNKRFILPELRDAVRTVGADIVCLQEVMGAHEVHPLHIENWPDTTHYEFLADTMWSDFAYGRNAVYPEGHHGNAVLSRYPIEHYENRDVSVGGSEKRGVLYCRITPPMLNRPIHVMCVHLGLRESHRQAQLTMLAGWVNALPESEPVLVAGDFNDWRQKAGPPLNAAGLEEIFTRAHGRPARTFPVSMPLLRLDRIYVKNANASSPTALPLRNWRHLSDHAPLSAEIHL | not soluble
MSNQEPYRIPKRTASDPNQSGSQGSCVRPNQEGNVKKEESVNSAPRRMFTLPSSSSTSGAQVFNPIGKCQVQTNSFKIDITKMPKRLLRLSMETRLCGGKTELNLNDGVQAVAGNLNSQEDFTTQEWSQISNYLRKKNAEFKVKISPNGFVYTNGPNSLSDANRQELPRLVEIATSEVLNTPEYLQFGNQTYAVNEPAVSSPDALSEIRSGFDKSVRLVDGENGSTEIIMTIDNKLAPFHKSTSVLKMICDKFEEIVNPARQHRGSQDRRGDRDRGYRGGRSYGHDNRRRSRSRSPQDRGDRGDRGNHHRDHNEDWDERKVKEVERRLLEEPRALGSIADALKGLIVESVHLSKDVNRNSRIKLNEGKNDEQEISVADYYLKQYNYKLKFPYLPMIVSKRFRSETMFPVELLKIVPGQKISIQKINPNVQSAMTGPNSILPSKHVRIVARILESSLKIASNPYLKTFGIRISKDPIKLEAKILSPAQLSFNKYSIMPKPGSVQFEPSREDKFFKPAKIYEVAVIAFRVVSINLSDFCMKLCDLCRRSGLEIRRETRDWIKIENFNPTSTIELKEQMKRLQQSNCSIIIGITEEKKPEVHDVLKYFEAAVGLQTMQIHSKTAGFIISGNGQTAGNVIKKLNLKCGGINYIVEVPQSFNRTVVCSNNSFVQKKLFDGTQFIGFEMTHGAARTLFDKSNGTFDGEPTIVGCAYSLQKATDLGGFNWFQEQNEYRLKNLGTHIPKCLQYYKESSGSLPEKIVIYRTGAGEGDFDRVQQEITEIRSSFAEVQEGYKPSLVVIVANKTSHLRVFPVEIREGDTAMKQNVRSGTCLDGKITSAGREEFVLISQTALISTAKPTKYTIAANDPKWSKNEVMNLTYILSFAHQVCYQPPAVPHILYAADNLAKRGRNNFIQHKKLGELSKTIQATLTKYSDLNIEMDSKELSGELVEDITKSMNVMAIKARNFWA | not soluble
MGSDKIHHHHHHMEVIDLLFSLTPKTKKEDLFDRERELKDLEKLLETYPIVVITGLRRVGKSSLVKVFLNKSDLLHITVDGRRLYETSGGNISSHHLTRFLGEELSRISKSQKLLNVLKRVRGITVSGTSIELNPKEFSLSDLLEKLNETAKRRKKKIVIFFDEAQYLRYYGSRGGNDLLALFAYCYDNFENVRFIISGSEVGVLHDFLKLEDYSSPLHGRGIGFLTVRPFTFDQSVDFLMEGFREVGEKINFDVEEIVREIDGIVGYLVLFGVKYLEKKKKDEALKEVFHAVKALFEKEMEELRKRSERYPFILRQIARGINTWSALKNIFRAKGDFIGDSRLYSLLETLEKMSFIEKTQSGYRIVDPVFERILRE | not soluble
MIRQRRRALTPEQQQEMGQQAATRMMTYPPVVMAHTVAVFLSFDGELDTQPLIEQLWRAGKRVYLPVLHPFSAGNLLFLNYHPQSELVMNRLKIHEPKLDVRDVLPLSRLDVLITPLVAFDEYGQRLGMGGGFYDRTLQNWQHYKTQPVGYAHDCQLVEKLPVEEWDIPLPAVVTPSKVWEW | soluble
MGSDKIHHHHHHMGAMRPNQTFSHKAAVKLRSVEFLQYAGVTKFHDVILTSLVDINIGIGKRGSAQIKLPYTCVSGSLANTSGTADISLAYTHAVLVKDTYQLLGTLGGKLPTNNADKLSSDGRPLPMYYQTSLGTNDLVVGLSFITRKWLLATGYQHAFNQIGNDFRWSEWNSSAQRTEALEYPPSWNLKRGSDVMFRIERNFRSTKWNAYLGLLTIYRITPDQVSKGTSENRVEVPNTTGPAITALSGAGYRFSTAVALKAMVGVKIINRDTNPDGLSREFVSSLSVEIRL | not soluble
